Experimental data from patent US20190284293A1 (Bristol-Myers Squibb, published 2019).
Changes are numbered by the printed parent chain. Where “and” joins values, the source holds several entries; their conditions need not be identical. Equal entries are not always repeated.

Tests used:
[1] = target: T1, human CD73 on cells (human, UniProt P21589 27-549); test: flow cytometry, Calu6 cells
T1 construct: Endogenous protein; also called endogenous CD73 on Calu6, NCI-H292, SK-MEL-24, human B and T cells
T1 sequence: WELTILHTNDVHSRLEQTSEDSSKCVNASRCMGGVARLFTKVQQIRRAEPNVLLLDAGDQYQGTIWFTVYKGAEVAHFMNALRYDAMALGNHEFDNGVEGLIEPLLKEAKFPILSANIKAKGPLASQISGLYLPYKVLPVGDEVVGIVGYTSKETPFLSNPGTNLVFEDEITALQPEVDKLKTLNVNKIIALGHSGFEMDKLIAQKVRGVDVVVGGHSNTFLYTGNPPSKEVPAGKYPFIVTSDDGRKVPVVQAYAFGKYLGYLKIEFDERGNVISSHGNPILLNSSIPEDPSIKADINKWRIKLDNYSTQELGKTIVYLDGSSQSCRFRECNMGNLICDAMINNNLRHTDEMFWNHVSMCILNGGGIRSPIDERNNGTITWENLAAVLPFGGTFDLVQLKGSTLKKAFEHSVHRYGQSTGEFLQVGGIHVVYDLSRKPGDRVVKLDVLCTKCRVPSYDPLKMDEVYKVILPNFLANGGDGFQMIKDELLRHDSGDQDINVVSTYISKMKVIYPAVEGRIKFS
Description: (§1) Titration binding curves were produced with CD73 antibodies on Calu6 (CD73 endogenous expressors; human pulmonary adenocarcinoma cell line), DMS114 (CD73 negative; human small cell lung cancer cell line), CHO-cynoCD73 (cynoCD73-transfected) and CHO-K1 (cynoCD73 negative), cells using Alexa Fluor® 647 Goat Anti-Human IgG (H+L) as a secondary antibody, Invitrogen Cat#A-21445, using the following method: 100000 cells were plated in 100 uL PBS+2% FBS per well and blocked for 20 min. Using a U-bottom 96-deep well plate, volumes of antibody and PBS+2% FBS were combined as dictated by Table 12 below.
(§2) An 8-point serial dilution was performed by diluting a sixth of the volume (90 uL) into […], PBS+2% FBS. The cell plate was spun down for 5 minutes at 1500 rpm. 100 uL of diluted antibody was added per well of the plate. 100 uL PBS+2% FBS were added to all other wells. […] The plates were spun down at 1500 rpm for 5 min and washed in 200 uL PBS+2% FBS per well. The plates were washed again, resuspended in 200 uL 2% FBS in PBS per well and the samples were run.

[2] = target: T1, human CD73 on cells; test: flow cytometry, FITC-mAb, human T cells, donor D316
Description: (§3) Binding of CD73.4 antibody to human B and T cells was also determined. Peripheral blood mononuclear cells (PBMC) were isolated with Lympholyte-H cell separation gradient media. […] Cells from both donors were pooled for the unstained and FMO (Fluorescence minus one) control samples.

[3] = target: T1, human CD73 on cells; test: flow cytometry, FITC-mAb, human B cells, donor D329
Description: as §3

[4] = target: T1, human CD73 on cells; test: flow cytometry, FITC-mAb, human T cells, donor D329
Description: as §3

[5] = target: T2, rhCD73 bound to his-tag magnet beads (human, UniProt P21589 27-547, limits assumed); test: cell-based or functional assay
T2 sequence: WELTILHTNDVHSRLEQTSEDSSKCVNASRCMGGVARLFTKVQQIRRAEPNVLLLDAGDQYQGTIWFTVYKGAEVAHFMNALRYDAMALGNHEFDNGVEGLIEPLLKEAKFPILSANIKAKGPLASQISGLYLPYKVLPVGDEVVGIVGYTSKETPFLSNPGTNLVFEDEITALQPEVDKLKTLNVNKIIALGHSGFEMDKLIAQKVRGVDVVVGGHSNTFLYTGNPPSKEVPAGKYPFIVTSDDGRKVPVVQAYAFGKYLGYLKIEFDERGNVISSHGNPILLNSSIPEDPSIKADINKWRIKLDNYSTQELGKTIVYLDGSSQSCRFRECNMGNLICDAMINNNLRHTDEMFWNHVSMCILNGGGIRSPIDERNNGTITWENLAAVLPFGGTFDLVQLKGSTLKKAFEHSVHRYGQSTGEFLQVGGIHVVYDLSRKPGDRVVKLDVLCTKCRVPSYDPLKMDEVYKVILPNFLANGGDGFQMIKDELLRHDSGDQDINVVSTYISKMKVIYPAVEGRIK

[6] = target: T1, human CD73 on cells; test: cell-based or functional assay
[7] = target: T1, human CD73 on cells; test: flow cytometry, FITC-mAb, human B cells, donor D316
Description: as §3

[8] = target: T1, human CD73 on cells; test: cell-based or functional assay; remark: listed apart in the source
[9] = target: T3, cynomolgus CD73 on transfected CHO cells (cynomolgus, UniProt P21589 27-549 (human entry)); test: flow cytometry, CHO-cynoCD73 cells
T3 construct: also called CHO-cynoCD73; CHO-Cynomolgus CD73 transfectants
T3 chain: T1 sequence with M199T, T350A, V466I
Description: as §1, §2

[10] = target: T1, human CD73 on cells; test: binding titration on Calu6 cells, average of 2-6 experiments
[11] = target: T4, cyno CD73, Sino Biological Inc Cat#90192-C08H, bound to his-tag magnet beads (cynomolgus, UniProt P21589 27-547 (human entry)); test: cell-based or functional assay
T4 chain: T2 sequence with M199T, T350A, V466I

B1: CD73.4-IgG2-C219S (antibody)
heavy: QVQLVESGGGVVQPGRSLRLSCAASGFTFSNYGMHWVRQAPGKGLEWVAVILYDGSNKYYPDSVKGRFTISRDNSKNTLYLQMNSLRAEDTAVYYCARGGSSWYPDSFDIWGQGTMVTVSSASTKGPSVFPLAPCSRSTSESTAALGCLVKDYFPEPVTVSWNSGALTSGVHTFPAVLQSSGLYSLSSVVTVPSSNFGTQTYTCNVDHKPSNTKVDKTVERKSCVECPPCPAPPVAGPSVFLFPPKPKDTLMISRTPEVTCVVVDVSHEDPEVQFNWYVDGVEVHNAKTKPREEQFNSTFRVVSVLTVVHQDWLNGKEYKCKVSNKGLPAPIEKTISKTKGQPREPQVYTLPPSREEMTKNQVSLTCLVKGFYPSDIAVEWESNGQPENNYKTTPPMLDSDGSFFLYSKLTVDKSRWQQGNVFSCSVMHEALHNHYTQKSLSLSPG
light: not shown
notes: also called CD73.4-IgG2CS; CD73.4-IgG2.3
With B1 the EC50 [1] was 0.49 nM, the IC50 [2] was 0.18 nM and the IC50 [3] was 0.0777 nM. The IC50 [4] was 0.135 nM, the “EC50 (nM), inhibition of bead-bound human CD73 enzymatic activity” value [5] was 2.72 nM and the “CD73 Inhibition EC50 (nM), cAMP assay, Calu6” value [6] was 1.56 nM and 1.78 nM. The IC50 [7] was 0.159 nM, the “EC50 Calu6 inhibition” value [8] was 0.34 nM and the EC50 [9] was 0.34 nM. The EC50 [10] was 0.49 nM and the “EC50 (nM), enzymatic inhibition of cyno CD73 (bead-bound)” value [11] was 3.66 nM.
